The numbers were not newly measured in paper PMC6200408, which cites them from elsewhere.

Broadly, the Kd is the free concentration of one partner at which half of the binding sites on the other are occupied at equilibrium, for simple one-to-one binding.

The target of the series is cubilin (Homo sapiens) (UniProt O60494).
Sequence of UniProt O60494 (O60494 36-3623): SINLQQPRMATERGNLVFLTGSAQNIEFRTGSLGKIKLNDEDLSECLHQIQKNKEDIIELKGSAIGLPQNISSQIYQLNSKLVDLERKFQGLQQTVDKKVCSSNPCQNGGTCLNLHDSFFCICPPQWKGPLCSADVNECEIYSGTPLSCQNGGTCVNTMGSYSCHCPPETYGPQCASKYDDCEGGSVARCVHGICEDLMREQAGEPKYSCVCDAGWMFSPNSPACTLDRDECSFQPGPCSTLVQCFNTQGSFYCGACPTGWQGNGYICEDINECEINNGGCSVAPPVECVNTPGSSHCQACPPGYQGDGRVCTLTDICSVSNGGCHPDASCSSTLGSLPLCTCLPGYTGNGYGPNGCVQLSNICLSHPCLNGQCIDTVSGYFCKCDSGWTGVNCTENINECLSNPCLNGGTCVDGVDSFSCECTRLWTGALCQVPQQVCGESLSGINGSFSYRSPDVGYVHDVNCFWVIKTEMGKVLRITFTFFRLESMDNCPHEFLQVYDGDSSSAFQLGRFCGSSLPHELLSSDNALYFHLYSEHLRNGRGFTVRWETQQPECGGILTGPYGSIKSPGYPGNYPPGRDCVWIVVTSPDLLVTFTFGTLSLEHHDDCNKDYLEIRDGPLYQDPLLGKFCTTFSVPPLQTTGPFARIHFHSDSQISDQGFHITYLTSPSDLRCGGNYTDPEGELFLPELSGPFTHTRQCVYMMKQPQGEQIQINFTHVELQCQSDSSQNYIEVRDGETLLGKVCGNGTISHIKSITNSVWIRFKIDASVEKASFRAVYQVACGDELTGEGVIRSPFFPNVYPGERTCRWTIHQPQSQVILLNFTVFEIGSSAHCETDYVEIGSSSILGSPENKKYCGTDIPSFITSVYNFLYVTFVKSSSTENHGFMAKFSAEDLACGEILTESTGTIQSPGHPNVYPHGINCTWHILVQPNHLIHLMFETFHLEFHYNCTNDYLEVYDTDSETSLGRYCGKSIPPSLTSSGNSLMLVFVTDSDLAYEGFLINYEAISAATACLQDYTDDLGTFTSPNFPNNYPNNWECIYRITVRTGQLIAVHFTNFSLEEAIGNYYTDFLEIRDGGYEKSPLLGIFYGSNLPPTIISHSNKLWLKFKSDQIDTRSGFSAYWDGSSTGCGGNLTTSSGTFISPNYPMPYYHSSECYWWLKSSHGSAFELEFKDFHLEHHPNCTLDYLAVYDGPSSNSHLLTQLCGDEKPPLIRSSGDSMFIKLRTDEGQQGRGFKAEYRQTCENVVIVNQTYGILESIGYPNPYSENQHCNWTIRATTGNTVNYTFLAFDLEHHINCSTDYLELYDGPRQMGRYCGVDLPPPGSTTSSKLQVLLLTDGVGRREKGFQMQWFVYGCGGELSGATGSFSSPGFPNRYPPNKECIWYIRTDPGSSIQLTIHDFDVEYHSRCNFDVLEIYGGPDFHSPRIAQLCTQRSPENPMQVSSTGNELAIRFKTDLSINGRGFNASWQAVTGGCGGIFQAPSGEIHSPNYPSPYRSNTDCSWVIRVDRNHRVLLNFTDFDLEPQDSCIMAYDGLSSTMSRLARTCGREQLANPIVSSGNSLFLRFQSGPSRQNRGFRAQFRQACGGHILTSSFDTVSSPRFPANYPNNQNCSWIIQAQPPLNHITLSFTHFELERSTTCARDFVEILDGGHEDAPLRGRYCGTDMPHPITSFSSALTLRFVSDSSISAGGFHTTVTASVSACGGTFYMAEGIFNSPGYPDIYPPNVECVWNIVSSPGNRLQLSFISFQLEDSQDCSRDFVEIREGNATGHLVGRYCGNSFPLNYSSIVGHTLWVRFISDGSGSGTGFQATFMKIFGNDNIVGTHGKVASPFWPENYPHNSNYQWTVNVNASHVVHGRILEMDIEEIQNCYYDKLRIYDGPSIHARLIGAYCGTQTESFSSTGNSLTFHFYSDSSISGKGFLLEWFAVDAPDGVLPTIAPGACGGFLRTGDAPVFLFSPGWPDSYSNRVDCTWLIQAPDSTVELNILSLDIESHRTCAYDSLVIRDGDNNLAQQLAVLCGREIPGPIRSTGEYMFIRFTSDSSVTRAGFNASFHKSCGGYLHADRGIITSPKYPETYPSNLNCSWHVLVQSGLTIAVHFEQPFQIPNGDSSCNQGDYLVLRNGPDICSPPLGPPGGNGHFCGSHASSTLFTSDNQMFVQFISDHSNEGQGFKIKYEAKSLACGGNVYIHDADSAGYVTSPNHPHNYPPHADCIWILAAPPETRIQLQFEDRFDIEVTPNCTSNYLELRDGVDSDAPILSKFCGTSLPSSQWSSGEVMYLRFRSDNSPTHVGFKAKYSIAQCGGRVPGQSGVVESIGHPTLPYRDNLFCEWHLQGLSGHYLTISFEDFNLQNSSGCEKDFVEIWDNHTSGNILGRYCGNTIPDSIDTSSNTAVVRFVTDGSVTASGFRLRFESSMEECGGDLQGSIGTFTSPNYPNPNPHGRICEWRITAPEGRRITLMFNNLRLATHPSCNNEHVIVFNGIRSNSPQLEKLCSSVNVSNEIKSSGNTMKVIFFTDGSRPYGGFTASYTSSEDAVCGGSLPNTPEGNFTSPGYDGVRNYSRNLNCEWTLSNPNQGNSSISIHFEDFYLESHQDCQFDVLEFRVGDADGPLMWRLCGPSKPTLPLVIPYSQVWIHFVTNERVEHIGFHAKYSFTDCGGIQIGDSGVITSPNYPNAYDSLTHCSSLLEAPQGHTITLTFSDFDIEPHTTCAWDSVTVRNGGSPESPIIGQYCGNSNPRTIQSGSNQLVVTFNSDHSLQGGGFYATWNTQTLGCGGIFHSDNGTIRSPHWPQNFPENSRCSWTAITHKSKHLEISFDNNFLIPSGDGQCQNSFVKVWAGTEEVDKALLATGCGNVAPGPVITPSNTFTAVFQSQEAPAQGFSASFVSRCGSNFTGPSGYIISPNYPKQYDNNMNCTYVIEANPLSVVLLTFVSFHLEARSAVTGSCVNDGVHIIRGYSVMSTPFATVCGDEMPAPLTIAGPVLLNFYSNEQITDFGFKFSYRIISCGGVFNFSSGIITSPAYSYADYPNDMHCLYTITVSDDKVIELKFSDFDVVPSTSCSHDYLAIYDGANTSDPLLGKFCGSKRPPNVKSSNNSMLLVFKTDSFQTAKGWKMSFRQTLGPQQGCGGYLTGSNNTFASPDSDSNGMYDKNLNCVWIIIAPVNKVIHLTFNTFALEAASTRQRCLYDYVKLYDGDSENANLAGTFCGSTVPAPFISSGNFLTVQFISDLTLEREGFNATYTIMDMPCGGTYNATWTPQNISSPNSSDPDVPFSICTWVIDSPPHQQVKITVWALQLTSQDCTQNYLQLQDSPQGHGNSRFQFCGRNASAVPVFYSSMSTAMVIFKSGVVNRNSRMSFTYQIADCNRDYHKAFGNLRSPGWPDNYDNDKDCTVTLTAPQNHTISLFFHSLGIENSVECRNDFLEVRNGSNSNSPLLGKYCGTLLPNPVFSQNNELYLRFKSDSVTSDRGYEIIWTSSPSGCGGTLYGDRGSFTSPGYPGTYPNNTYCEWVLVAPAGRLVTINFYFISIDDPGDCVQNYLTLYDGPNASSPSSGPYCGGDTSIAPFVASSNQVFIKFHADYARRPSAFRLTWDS

Take albumin (from UniProt P02768): the Kd is 0.6 pM.
